{
  "source": "patent US8709448B2",
  "about": "“Anti-infective agents and uses thereof” (priority 2008, dated 2014)",
  "test_system": "PBMC",
  "data": [
    {"substance": "IFNα", "values": [
      {"measurement": "effect on overall PBMC culture viability", "value": "no effect"}
    ]}
  ]
}
